We go through three substances from PMC10629557.

In experiment [1] the target is phosphorylated origin recognition complex (ORC treated with Clb5-Cdk1 and ATP) (S. cerevisiae) (UniProt P54784). Description: colocalization single-molecule spectroscopy (CoSMoS); surface-tethered ARS1 DNA^AF488; 2.5 nM ORC, 10 nM Cdc6, 2.5 nM labeled Mcm2-7-Cdt1, ATP; time to the first Mcm2-7 association with each DNA, taken by the paper as OCCM formation; apparent first-order association rate, background binding at non-DNA sites fitted. To be noted: remark: other sources report otherwise.

The target of experiment [2] is origin recognition complex (ORC), wild type, unphosphorylated (S. cerevisiae) (UniProt P54784). Described as above. To be noted: remark: other sources report otherwise.
In experiment [3] the target is ORC^6C-DY549, wild type, without CDK treatment (S. cerevisiae) (UniProt P54784). Description: FRET or BRET; single-molecule FRET on surface-tethered ARS1 DNA between ORC^6C-DY549 (donor on Orc6 C-terminus) and Mcm2-7^3N-DY650 (acceptor on Mcm3 N terminus), with Cdc6 and Cdt1; MO complex (ORC on the N-terminal face of Mcm2-7) scored if E_FRET > 0.5 for two consecutive frames; low E_FRET in the OCCM. For orientation: Bioluminescence resonance energy transfer reports proximity on the nanometre scale.

Another experiment has as its target Mcm4 (UniProt P30665). Description: CoSMoS: labelled Mcm2-7 arrival at ORC-Cdc6-bound DNA. To be noted: reference: wild-type ORC, no CDK.

“Cdt1-Mcm2-7^4SNAP-JF646 (Mcm2-7-Cdt1 complex, Mcm2-7 fluorescently labeled at the N-terminus of Mcm4), P29469 1-868; P24279 1-971; P30665 1-933; P29496 1-775; P53091 1-1017; P38132 1-845; P47112 1-604”: the apparent first-order association rate ka of first Mcm2-7-Cdt1 recruitment (OCCM formation) in experiment [1] turned out to be 0.002 s⁻¹; in experiment [2] it was 0.0047 s⁻¹.

In experiment [3], “Mcm2-7^3N-DY650 (Mcm2-7 complex with an acceptor fluorophore at the N terminus of Mcm3) (from UniProt P29469 1-868; P24279 1-971; P30665 1-933; P29496 1-775; P53091 1-1017; P38132 1-845)” returned a percent of first Mcm2-7 landings with the high-E FRET state (MO complex formation) of 21%.

Consider “Orc6 (from UniProt P38826) wild-type ORC treated with Clb5-Cdk1 and ATP”, for which, in the experiment with Mcm4, the “other: apparent association rate ka” value is given as “weaker; reference 0.0047 ± 0.0003”.
